Test results as given in the RNAGym collection of RNA variant scans (doi:10.7554/elife.90254).

B1: OR4K15 (parent)
chain: GUUAACGGUCAUAGGCCAUGGAAACUAGGAGCACCAUUUCGCUGCCAGUGAAGAAAUGAACAAAGAAAAUCUGGGCCAGGCAGGCAUCAAAAGAAAUAGUCUUGCGCUCAACCAGAAAGUCUGUAAUCAUUUUAAGGGUA

Variants of: B1
Experiment: self-cleavage, relative activity (ratio to wild type); higher = more cleavage; in vitro, sequencing; the parent is a self-cleaving ribozyme

Point of comparison: GUUAACGGUCAUAGGCCAUGGAAACUAGGAGCACCAUUUUGCUGCCAGUGAAGAAAUGAACAAAGAAAAUCUGGGCCAGGCAGGCAUCAAAAGAAAUAGUCUUGCGCUCAACCAGAAAGUCUGUAUUCAUUUUAAGGGUA [C40U A126U], self-cleavage 1.31. Against it:
- GUUAACGGUCAUAGGCCAUGGAAACUAGGAGCACCAUUUCGCUGCCAACGAAGAAAUGAACAAAGAAAAUCUGGGCCAGGCAGGCAUCAAAAGAAAUAGUCUUGCGCUCAACCAGAAAGUCUGUAAUCAUUUUAAGGGUA [G48A U49C] — higher, 1.73
- GUUAACGGUCAUAGGCCAUGGAAACUAGGAGCACCAUUUCGCUGCCAGUGAAGAAAUGAACAAAGAAAACCUGGGCCAGGCAGGCAUCAAAAGAAAUAGCCUUGCGCUCAACCAGAAAGUCUGUAAUCAUUUUAAGGGUA [U70C U100C] — higher, 2
- GUUAACGGUCAUAGGCCAUGGAAACUAGGAGCACCAUUUCGCUGCCAGAGAAGAAAUGAACAAAGAAAAUCUGGGCCAGGCAGGCAUCAAAAGAAAUAGUCUUGCGCUCAACCAGAAAGUCUGUAAUCAUUUUAAGGGUG [U49A A140G] — higher, 1.41
- GUUAACGGUCAUAGGCCAUGGAAACUAGGAGCACCAUUUCGCUGCCAGUGAAGAAAUGAACAAAGAAAAUCUGGGCCAGGCAGGCAUCAAAAGAAAUAGUAUUGCGCUCAACCAGAAGGUCUGUAAUCAUUUUAAGGGUA [C101A A118G] — lower, 0.08
- GUUAACGGUCAUAGGCCAUGGAAACUAGGAGCACCAUUUCGCUGCAAGUGAAGAAAUGAACAAAGAAAAUCUGGGCCAGGCAGGCAUCAAGAGAAAUAGUCUUGCGCUCAACCAGAAAGUCUGUAAUCAUUUUAAGGGUA [C46A A91G] — lower, 0.95
- GUUAACGGUCAUAGGCCAUGGAAACUAGGAGCACCAUUUCGCUGCCAGUGAAGAAAUGAACAAAGAAAAUCUGGGCCAGGCAGGCAUCAAAAGAAAUAGUCUUGCGCUCAACCGGAAAGUCUGUAUUCAUUUUAAGGGUA [A114G A126U] — lower, 0.46
- GCUAACGGUCAUAGGCCAUGGAAACUAGGAGCACCAUUUCGCUGCCAGUGAAGAAAUGAACAAAGAAAAUCUGGGCCAGGCAGGCAUCAAAAGAAAUAGUCUUGCGCUCAACCAGAAAGUCUGUAAUCAUUUUAGGGGUA [U2C A135G] — higher, 1.32
- GUUAACGGUCAUAGGCCAUGGAAACUAGGAGCACCAUUUCGCUGCCAGUGAAGAAAUGAACAAAGAAAAUCUGGGCUAGGCAGGCAUCAAAAGAAAUAGUCUUGCGCUCAACCAGAGAGUCUGUAAUCAUUUUAAGGGUA [C77U A117G] — higher, 2.83
- GUUAACGGUCAUAGGCCAUGGAAACUAGGAGCACCAUUUCACUGCCAGUGAAGGAAUGAACAAAGAAAAUCUGGGCCAGGCAGGCAUCAAAAGAAAUAGUCUUGCGCUCAACCAGAAAGUCUGUAAUCAUUUUAAGGGUA [G41A A54G] — lower, 1.09
- GUUAACGGUCAUAGGCCAUGGAAACUAGGAGCACCAUUUCGCUGCCAGUGAAGAAAUGAACAAAGAAAAUCUGUGCCAGGCAGGCAUCAAAAGAAAUAGUCUUGCGCUCAACCAGAAAGUAUGUAAUCAUUUUAAGGGUA [G74U C121A] — lower, 0.36
- GUUAACGGUCAUAGGCCAUGGAAACUAGGAGCACCAUUUCGCUGCCAGUGAAGAAAUGAACAAAGAGAAUCUGGGCCAGGCAGGCAUCAAAAGAAAUAGUCUUGCGCCCAACCAGAAAGUCUGUAAUCAUUUUAAGGGUA [A67G U108C] — lower, 0.02
- GUUAACGGUCAUAGGCCAUGGAAACUAGGAGCACCAUUUCGCUGCCAGUGAAGAAAUGAACAAAGUAAAUCUGGGCCAGGCAGGCAUCCAAAGAAAUAGUCUUGCGCUCAACCAGAAAGUCUGUAAUCAUUUUAAGGGUA [A66U A89C] — lower, 0.99
- GUUAACGGUCAUAGGCCAUGGAAACUAGGAGCACCAUUUCGCUGCCAGUGAAGAAAUGAACAAAGAAAAUCUGGGCCUGGCAGGCAUCAAAAGAAAUAGUCUUGCGCGCAACCAGAAAGUCUGUAAUCAUUUUAAGGGUA [A78U U108G] — lower, 0.01
- GUUAACGGUCAUAGGCCAUGGAAACUAGGAGCACCAUUUCGCUGCCAGUGAAGAAAUGAACAAUGAAAAUCUGGGCCAGGCAGGCAUCAAAGGAAAUAGUCUUGCGCUCAACCAGAAAGUCUGUAAUCAUUUUAAGGGUA [A64U A92G] — lower, 1.11
- GUUAACGGUCGUAGGCCAUGGGAACUAGGAGCACCAUUUCGCUGCCAGUGAAGAAAUGAACAAAGAAAAUCUGGGCCAGGCAGGCAUCAAAAGAAAUAGUCUUGCGCUCAACCAGAAAGUCUGUAAUCAUUUUAAGGGUA [A11G A22G] — lower, 1.04
- GUUAACGGUCAUAGGCCAUGGAAACUAGGUGCACCAUUUCGCUGCCAGUGAAGAAAUGAACAAAGAAAAUCUGGGCCAGGCAGGCAUCAAAAGAAAUAGUCCUGCGCUCAACCAGAAAGUCUGUAAUCAUUUUAAGGGUA [A30U U102C] — higher, 1.81
- GUUAAAGGUCAUAGGCCAUGGAAACUAGGAGCACCAUUUCGCUGCCAGUGAAGAAAUGAACAAAGAAAAUCUGGGCCAGGCAGGCAUCAAAAGAAAUAGUCUUGCGCUCGACCAGAAAGUCUGUAAUCAUUUUAAGGGUA [C6A A110G] — lower, 0.08
- GUUAACGGUCAUAGGCCAUGAAAACUAGGAGCACCAUUUCGCUGCCAGUGAAGAAAUGAACAAAGAAAAUCUGGGCCAGGCAGGCAUCAAAAGAAAUUGUCUUGCGCUCAACCAGAAAGUCUGUAAUCAUUUUAAGGGUA [G21A A98U] — higher, 2.32
- GUUAACGGUCAUAGGCCAUGGAAACUAGGAGCACCAUUUCGCUGCCCGUGAAGAAAUGAACAAAGAGAAUCUGGGCCAGGCAGGCAUCAAAAGAAAUAGUCUUGCGCUCAACCAGAAAGUCUGUAAUCAUUUUAAGGGUA [A47C A67G] — lower, 0.84
- GUUAACGGUCAUAGGCCAUGGGAACUAGGAGCACCAUUUCGCUGCCAGUGAAGAAAUGAACAAAGAAACUCUGGGCCAGGCAGGCAUCAAAAGAAAUAGUCUUGCGCUCAACCAGAAAGUCUGUAAUCAUUUUAAGGGUA [A22G A69C] — lower, 0.68
